Measured values reported in patent publication US20210214435A1.

Tests used:
[1] = biological target: human GPVI-Fc (isoform and haplotype not stated) used in the competition ELISA (human) (UniProt Q9HCN6); experiment: Competition ELISA (MSD): human GPVI-Fc preincubated with Fab, then on coated VitroCol (competitor)
[2] = biological target: human GPVI on the cell surface of human platelets (human) (UniProt Q9HCN6); experiment: FACS on washed human platelets from PRP (one exemplary donor), PE-conjugated detection antibody, median fluorescence
[3] = biological target: human GPVI-Fc (isoform and haplotype not stated) used in the competition ELISA (human) (UniProt Q9HCN6); experiment: Competition ELISA (MSD): human GPVI-Fc preincubated with Fab, then on coated CRP-XL (competitor)
[4] = biological target: human GPVI-Fc (isoform and haplotype not stated) used in the competition ELISA (human) (UniProt Q9HCN6); experiment: Competition ELISA (MSD): human GPVI-Fc preincubated with Fab, then on coated rat-tail collagen (competitor)
[5] = biological target: human GPVI on the cell surface of human platelets (human) (UniProt Q9HCN6); experiment: FACS on washed human platelets from PRP, Fab directly conjugated with PE, average + SD of 3 donors, signal given as GPVI molecules per cell

Binder | IC50 [1] [nM] | Maximum inhibition at 200 nM Fab [%] [1] [%] | EC50 (read off the curve) [2] [µg/mL] | IC50 [3] [nM] | Maximum inhibition at 200 nM Fab [%] [3] [%] | IC50 [4] [nM] | Maximum inhibition at 200 nM Fab [%] [4] [%] | EC50 (read off the curve) [5] [µg/mL]
Fab #2 comprising a modified heavy chain constant region (Fab, V domains shown) VH: QVQLVESGGGLVKPGGSLRLSCAASGFSFSDHYMSWIRQAPGKGLEWVSSVGSEGKFIDYAASVKGRFTISRDNAKNSLYLQMNSLRAEDTAVYYCARHYREFRWHYYYFDYWGQGTLVTVSS VL: QSVLTQPPSVSGAPGQRVTISCTGSSSNIGAGYDVHWYQQLPGTAPKLLIYGNSNRPSGVPDRFSGSKSGTSASLAITGLQAEDEADYYCQSHDLGAHVWVFGGGTKLTVLG | 5.4 | 100 | 0.4 | 8.3 | 100 | 6.3 | 100 | –
Fab #3 comprising a modified heavy chain constant region (Fab, V domains shown) VH: QVQLVESGGGLVKPGGSLRLSCAASGFSFGDYYVSWIRQAPGKGLEWVSAIGGSGSAVQYAESVKGRFTISRDNAKNSLYLQMNSLRAEDTAVYYCARHYREFRWHYYYFDYWGQGTLVTVSS VL: QSVLTQPPSVSGAPGQRVTISCTGSSSNIGAGYDVHWYQQLPGTAPKLLIYGNSNRPSGVPDRFSGSKSGTSASLAITGLQAEDEADYYCQSHDLGAHVWVFGGGTKLTVLG | 5.6 | 99 | 0.4 | 8.7 | 100 | 6.3 | 99 | 0.5
Reference Control Antibody RefFab #1 (humanized GPVI antibody of WO2011073954A2, SANOFI) (Fab, V domains shown) VH: EVQLLESGPGLVAPSGSLSITCTVSGFSLTGYGVNWVRQPPGKGLEWLGMIWGDGSTDYQSTLKSRLSISKDNSKSQVFLKMNSLRTDDTARYYCARDLPMDYWGLGTSVTVSS VL: DIQMTQSPSSLSASVGGRVTITCKASQDINKYIAWYQHKPGKGPSLLIHYTSTLQPGVPSRFSGSGSGRDYSFSISNLQPEDIATYYCLQYANLLTFGGGTKLEIKR | 5.8 | 100 | 1 | 10.6 | 100 | 7 | 99 | –
Fab #4 comprising a modified heavy chain constant region (Fab, V domains shown) VH: QVQLVQSGAEVKKPGASVKVSCKASGGAFTSSYMHWVRQAPGQGLEWMGIIEPTGASTLYAQRFQGRVTMTRDTSTSTVYMELSSLRSEDTAVYYCARTGIALPLGFDLWGQGTLVTVSS VL: QSVLTQPPSVSAAPGQKVTISCSGSSSNIGNNYVSWYQQLPGTAPKLLIYDNNKRPSGIPDRFSGSKSGTSATLGITGLQTEDEADYYCAAWSTRFRWVFGGGTKLTVLG | 10.6 | 82 | 0.5 | 13.2 | 47 | 8.2 | 86 | 0.6
Fab #1 comprising a modified heavy chain constant region (Fab, V domains shown) VH: QVQLVQSGAEVKKPGASVKVSCKASGYTFTSHYMHWVRQAPGQGLEWMGLIEPSEGETEYAQRFQGRVTMTRDTSTSTVYMELSSLRSEDTAVYYCARDSSRSYPLGFDIWGQGTLVTVSS VL: QSVLTQPPSVSAAPGQKVTISCSGSSSNIGNNYVSWYQQLPGTAPKLLIYDNNKRPSGIPDRFSGSKSGTSATLGITGLQTEDEADYYCAAWDFRSSRWVFGGGTKLTVLG | 8.2 | 79 | 0.2 | 10.9 | 63 | 11 | 89 | –
